# Experimental data from patent US8361965B2, “Recombinant chimeric protein of neutrophil inhibitory factor and hirugen, and pharmaceutical composition thereof” (Lunan Pharmaceutical Group Corporation, priority 2008, dated 2013).
# “And” between values parts separate entries of the source, which are not always exact repeats. Identical values can stand only once. Like-named read-outs stand apart in the source and are kept apart here.
# B1: TNHH: recombinant chimeric protein of neutrophil inhibitory factor and hirugen, Met-NIF-GGGGG-FPRPGSGG-Hirugen (SEQ ID NO: 3), expressed in E. coli (protein)
# chain: MNEHNLRCPQNGTEMPGFNDSIRLQFLAMHNGYRSKLALGHISITEESESDDDDDFGFLPDFAPRASKMRYLEYDCEAEKSAYMSARNCSDSSSPPEGYDENKYIFENSNNISEAALKAMISWAKEAFNLNKTKEGEGVLYRSNHDISNFANLAWDAREKFGCAVVNCPLGEIDDETNHDGETYATTIHVVCHYPKINKTEGQPIYKVGTPCDDCSEYTKKADNTTSADPVCIPDDGVCFIGSKADYDSKEFYRFRELGGGGGFPRPGSGGNGDFEEIPEEYL
# modifications: N-terminal Met
# Legend:
# [1] = system: platelet aggregation induced by human thrombin; experiment: antiplatelet aggregation assay (rabbits dosed i.v., thrombin-induced aggregation of PRP); type: in vivo, Japanese Giant Ear White Rabbits; conditions: for aggregation ratio, difference: before vs 15 min after
# Protocol: Platelet aggregation rate was determined by puncture of the central artery of the ear before administration, and then rabbits were randomly divided into 5 groups (4 in each group) based on the platelet aggregation rate and body weight: (1) negative control group (5.12 mg mannitol/kg), (2) high dose TNHH group (4.0 mg/kg), (3) middle dose TNHH group (2.0 mg/kg), (4) low dose TNHH group (1.0 mg/kg), and (5) positive control group (0.1 mg recombinant hirudin/kg). The rabbits in each group were administered at the dose respectively via intravenous injection from the marginal ear vein. Blood samples were collected at the time of 15 min after administration (timed by stopwatch) by puncture of the central artery of the ear to determine the platelet aggregation rate. The method of platelet aggregation rate determination was described as follows: the blood samples were collected by puncture of the central artery of the ear using silicified syringe. 3.8% anticoagulant sodium citrate solution (blood: anticoagulant=9:1) was used. The sample was centrifuged at 200×g for 8 min, and the supernatant obtained was platelet-rich plasma (PRP); then the remaining part was centrifuged again at 2200×g for 10 min, and the supernatant obtained was platelet-poor plasma (PPP). The platelet in PRP was counted as approximate 4.0×10^5/mm^3. According to Born's turbidimetry, a turbidimetric tube with 200 μl PRP and a small magnetic bar was placed in a platelet aggregation instrument and incubated at 37 for 1 min. After calibrating with PPP, the platelet was induced to aggregate by adding inductive human thrombin (0.76 IU/ml) under stirring. The effect of medicaments on the aggregation of platelet was analyzed using the aggregation curve and the maximum aggregation rate obtained from the instrument. The maximum aggregation rate was calculated according to the formula below: […]
# [2] = system: blood coagulation system; experiment: effects on blood coagulation system of New Zealand rabbits in vivo (APTT, PT, TT); parameters: species or system New Zealand rabbit; PT: unit not given beside the values; APTT / TT: unit not given here
# Protocol: Medicaments were administrated via intravenous injection from marginal ear vein, and 1.8 ml blood was harvested from marginal ear veins at the time of before administration (0 min), and 10 min, 30 min, 60 min, 120 min and 240 min after administration, respectively (the time for injecting is 2 min). 3.2% sodium citrate (9:1) was added for anticoagulation and then mixed and centrifuged at 3000 rpm/min for 3 min. The plasma was send to Department of Clinical Laboratory, Southwest Hospital for determining blood coagulation indexes (APTT, TT and PT) with a full automatic coagulation analyzer and the difference before and after administration was obtained by comparison.
# [3] = system: focal cerebral ischemia-reperfusion injury in rats; type: in vivo, Sprague-Dawley (SD) rats
# [4] = TNHH 3.375 mg/kg i.v., 0 min (before administration)
# [5] = TNHH 6.675 mg/kg i.v., 0 min (before administration)
# [6] = dose in great excess of the effective dose
# [7] = M-1, TNHH 2.25 mg/kg i.v. (middle dose)
# [8] = M-1, TNHH 6.75 mg/kg i.v. (high dose)
# [9] = M-2, TNHH 2.25 mg/kg i.v. (middle dose)
# [10] = M-2, TNHH 6.75 mg/kg i.v. (high dose)
molecule,measurement,setting,value
B1,"aggregation ratio, Before administration",[1]; TNHH 1.0 mg/kg group,57.19 ± 4.42%
same,"aggregation ratio, 15 min after administration",[1]; TNHH 1.0 mg/kg i.v.,36.27 ± 12.13%
same,"aggregation ratio, difference",[1]; TNHH 1.0 mg/kg i.v.,20.82 ± 7.98 %
same,"aggregation ratio, Before administration",[1]; TNHH 2.0 mg/kg group,59.62 ± 7.22%
same,"aggregation ratio, 15 min after administration",[1]; TNHH 2.0 mg/kg i.v.,19.33 ± 10.25%
same,"aggregation ratio, difference",[1]; TNHH 2.0 mg/kg i.v.,30.30 ± 9.92 %
same,"aggregation ratio, Before administration",[1]; TNHH 4.0 mg/kg group,59.23 ± 6.30%
same,"aggregation ratio, 15 min after administration",[1]; TNHH 4.0 mg/kg i.v.,9.22 ± 4.51%
same,"aggregation ratio, difference",[1]; TNHH 4.0 mg/kg i.v.,50.92 ± 4.33 %
same,APTT,[2]; [4],36.45 ± 6.60
same,PT,[2]; [4],6.78 ± 0.28
same,TT,[2]; [4],15.57 ± 1.09
same,APTT,"[2]; TNHH 3.375 mg/kg i.v., 10 min",37.38 ± 6.35
same,PT,"[2]; TNHH 3.375 mg/kg i.v., 10 min",6.90 ± 0.21
same,TT,"[2]; TNHH 3.375 mg/kg i.v., 10 min",23.23 ± 2.47
same,APTT,"[2]; TNHH 3.375 mg/kg i.v., 30 min",31.97 ± 2.11
same,PT,"[2]; TNHH 3.375 mg/kg i.v., 30 min",6.85 ± 0.23
same,TT,"[2]; TNHH 3.375 mg/kg i.v., 30 min",16.13 ± 1.31
same,APTT,"[2]; TNHH 3.375 mg/kg i.v., 60 min",31.93 ± 2.39
same,PT,"[2]; TNHH 3.375 mg/kg i.v., 60 min",6.78 ± 0.22
same,TT,"[2]; TNHH 3.375 mg/kg i.v., 60 min",14.75 ± 1.44
same,APTT,"[2]; TNHH 3.375 mg/kg i.v., 120 min",30.52 ± 6.86
same,PT,"[2]; TNHH 3.375 mg/kg i.v., 120 min",6.87 ± 0.32
same,TT,"[2]; TNHH 3.375 mg/kg i.v., 120 min",14.02 ± 0.79
same,APTT,"[2]; TNHH 3.375 mg/kg i.v., 240 min",35.65 ± 9.36
same,PT,"[2]; TNHH 3.375 mg/kg i.v., 240 min",7.02 ± 0.24
same,TT,"[2]; TNHH 3.375 mg/kg i.v., 240 min",14.65 ± 1.14
same,APTT,[2]; [5],44.25 ± 5.39
same,PT,[2]; [5],6.88 ± 0.17
same,TT,[2]; [5],15.97 ± 1.42
same,APTT,"[2]; TNHH 6.675 mg/kg i.v., 10 min",39.87 ± 4.98
same,PT,"[2]; TNHH 6.675 mg/kg i.v., 10 min",7.17 ± 0.36
same,TT,"[2]; TNHH 6.675 mg/kg i.v., 10 min",33.57 ± 4.47
same,APTT,"[2]; TNHH 6.675 mg/kg i.v., 30 min",37.98 ± 4.77
same,PT,"[2]; TNHH 6.675 mg/kg i.v., 30 min",7.12 ± 0.47
same,TT,"[2]; TNHH 6.675 mg/kg i.v., 30 min",21.63 ± 1.71
same,APTT,"[2]; TNHH 6.675 mg/kg i.v., 60 min",36.17 ± 6.76
same,PT,"[2]; TNHH 6.675 mg/kg i.v., 60 min",7.17 ± 0.40
same,TT,"[2]; TNHH 6.675 mg/kg i.v., 60 min",15.55 ± 0.95
same,APTT,"[2]; TNHH 6.675 mg/kg i.v., 120 min",38.95 ± 8.85
same,PT,"[2]; TNHH 6.675 mg/kg i.v., 120 min",7.62 ± 0.64
same,TT,"[2]; TNHH 6.675 mg/kg i.v., 120 min",15.00 ± 1.51
same,APTT,"[2]; TNHH 6.675 mg/kg i.v., 240 min",38.03 ± 9.11
same,PT,"[2]; TNHH 6.675 mg/kg i.v., 240 min",7.97 ± 0.99
same,TT,"[2]; TNHH 6.675 mg/kg i.v., 240 min",13.33 ± 0.73
same,extension time of PT,"[2]; TNHH 6.675 mg/kg i.v., vs 0 min",less than 3 seconds
same,effects on the endogenous blood coagulation pathway,[2]; [6],no effects
same,effects on the exogenous blood coagulation pathway and fibrinolytic system,[2]; [6],some effects
same,"Cerebral infarction volume (%), based on the total volume of the brain","[3]; M-1 (occlusion 1 h, reperfusion 48 h), TNHH 0.75 mg/kg i.v. (low dose)",19.93±12.40%
same,nervous symptom score,"[3]; M-1 (occlusion 1 h, reperfusion 48 h), TNHH 0.75 mg/kg i.v., 2 h",1.46 ± 0.58
same,"Decrease in percentage (%), compared with corresponding model group","[3]; M-1, TNHH 0.75 mg/kg i.v. (low dose)",10.54%
same,nervous symptom score,"[3]; M-1, TNHH 0.75 mg/kg i.v., 6 h",1.42 ± 0.60
same,nervous symptom score,"[3]; M-1, TNHH 0.75 mg/kg i.v., 12 h",1.42 ± 0.60
same,nervous symptom score,"[3]; M-1, TNHH 0.75 mg/kg i.v., 24 h",1.40 ± 0.43
same,nervous symptom score,"[3]; M-1, TNHH 0.75 mg/kg i.v., 48 h",1.36 ± 0.62
same,"Cerebral infarction volume (%), based on the total volume of the brain",[3]; [7],19.41±11.74%
same,"Decrease in percentage (%), compared with corresponding model group",[3]; [7],12.88%
same,nervous symptom score,"[3]; M-1, TNHH 2.25 mg/kg i.v., 2 h",1.47 ± 0.92
same,nervous symptom score,"[3]; M-1, TNHH 2.25 mg/kg i.v., 6 h",1.47 ± 0.92
same,nervous symptom score,"[3]; M-1, TNHH 2.25 mg/kg i.v., 12 h",1.37 ± 0.92
same,nervous symptom score,"[3]; M-1, TNHH 2.25 mg/kg i.v., 24 h",1.38 ± 0.41
same,nervous symptom score,"[3]; M-1, TNHH 2.25 mg/kg i.v., 48 h",1.30 ± 0.76
same,"Cerebral infarction volume (%), based on the total volume of the brain",[3]; [8],12.89±8.94%
same,"Decrease in percentage (%), compared with corresponding model group",[3]; [8],42.14% and 42.15** %
same,nervous symptom score,"[3]; M-1, TNHH 6.75 mg/kg i.v., 2 h",1.50 ± 0.58
same,nervous symptom score,"[3]; M-1, TNHH 6.75 mg/kg i.v., 6 h",1.50 ± 0.68
same,nervous symptom score,"[3]; M-1, TNHH 6.75 mg/kg i.v., 12 h",1.39 ± 0.65
same,nervous symptom score,"[3]; M-1, TNHH 6.75 mg/kg i.v., 24 h",1.20 ± 0.36
same,nervous symptom score,"[3]; M-1, TNHH 6.75 mg/kg i.v., 48 h",1.00 ± 0.42
same,"Cerebral infarction volume (%), based on the total volume of the brain","[3]; M-2 (occlusion 2 h, reperfusion 48 h), TNHH 0.75 mg/kg i.v. (low dose)",27.52±17.63% and 27.52 ± 7.63%
same,nervous symptom score,"[3]; M-2 (occlusion 2 h, reperfusion 48 h), TNHH 0.75 mg/kg i.v., 2 h",1.94 ± 0.56
same,"Decrease in percentage (%), compared with corresponding model group","[3]; M-2, TNHH 0.75 mg/kg i.v. (low dose)",3.63%
same,nervous symptom score,"[3]; M-2, TNHH 0.75 mg/kg i.v., 6 h",1.94 ± 0.56
same,nervous symptom score,"[3]; M-2, TNHH 0.75 mg/kg i.v., 12 h",1.94 ± 0.73
same,nervous symptom score,"[3]; M-2, TNHH 0.75 mg/kg i.v., 24 h",1.88 ± 0.64
same,nervous symptom score,"[3]; M-2, TNHH 0.75 mg/kg i.v., 48 h",1.86 ± 0.77
same,"Cerebral infarction volume (%), based on the total volume of the brain",[3]; [9],26.07±8.06%
same,"Decrease in percentage (%), compared with corresponding model group",[3]; [9],7.42%
same,nervous symptom score,"[3]; M-2, TNHH 2.25 mg/kg i.v., 2 h",1.81 ± 0.92
same,nervous symptom score,"[3]; M-2, TNHH 2.25 mg/kg i.v., 6 h",1.80 ± 0.92
same,nervous symptom score,"[3]; M-2, TNHH 2.25 mg/kg i.v., 12 h",1.79 ± 0.92
same,nervous symptom score,"[3]; M-2, TNHH 2.25 mg/kg i.v., 24 h",1.68 ± 0.41
same,nervous symptom score,"[3]; M-2, TNHH 2.25 mg/kg i.v., 48 h",1.67 ± 0.76
same,"Cerebral infarction volume (%), based on the total volume of the brain",[3]; [10],19.72±8.90% and 19.72 ± 5.90%
same,"Decrease in percentage (%), compared with corresponding model group",[3]; [10],29.97%
same,nervous symptom score,"[3]; M-2, TNHH 6.75 mg/kg i.v., 2 h",1.75 ± 0.52
same,nervous symptom score,"[3]; M-2, TNHH 6.75 mg/kg i.v., 6 h",1.75 ± 0.27
same,nervous symptom score,"[3]; M-2, TNHH 6.75 mg/kg i.v., 12 h",1.50 ± 0.45
same,nervous symptom score,"[3]; M-2, TNHH 6.75 mg/kg i.v., 24 h",1.37 ± 0.52
same,nervous symptom score,"[3]; M-2, TNHH 6.75 mg/kg i.v., 48 h",1.22 ± 0.38
